{"source": "paper PMC3641820", "target": "Recombinant Borrelia burgdorferi HtrA (HtrABb, BB0104) with intact N-terminal His-tag (Borrelia burgdorferi strain B31A3)", "assay": "SEC", "data": [{"substance": "Recombinant Borrelia burgdorferi HtrA (HtrABb, BB0104) with intact N-terminal His-tag (enzyme)", "values": [{"measurement": "stoichiometry N", "value": 3}]}]}
